± gives the standard error. Fewer inactive variants are shown than the library holds.
B1: glmS ribozyme (parent)
chain: AUAAAAGCGCCAGAACUACAGAAAUGUAGUUGACGAGGAGGAGGUUUAUCGAAUUUUCGGCGGAUGCCUCCAAA

Key:
Conditions in all cases: with glucosamine-6-phosphate
glucosamine-6-phosphate [1] = variants of: B1; assay: self-cleavage kobs at 160 uM GlcN6P; higher = faster cleavage; RNA array
Method in brief: (§1)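 kcat and KM were obtained from weighted Michaelis–Menten fits across concentrations of kobs values. Those came from one- or two-exponential decay fits to per-tile medians normalised to baseline and to non-cleaving reference variants. The variants were barcoded ribozymes transcribed in situ by E. coli RNA polymerase on sequenced MiSeq chips and tracked through a hybridised Cy3 probe at 37 °C, with 40 μM to 10 mM glucosamine-6-phosphate in HEPES/KCl/Mg(OAc)2 buffer flowed in.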

glucosamine-6-phosphate [2] = variants of: B1; assay: self-cleavage kobs at 640 uM GlcN6P; higher = faster cleavage; RNA array
Method in brief: as §1

glucosamine-6-phosphate [3] = variants of: B1; assay: self-cleavage kobs at 2500 uM GlcN6P; higher = faster cleavage; RNA array
Method in brief: as §1

glucosamine-6-phosphate [4] = variants of: B1; assay: self-cleavage kobs at 10000 uM GlcN6P; higher = faster cleavage; RNA array
Method in brief: as §1

Variant	self-cleavage kobs at 160 uM GlcN6P (glucosamine-6-phosphate [1]) [s⁻¹]	self-cleavage kobs at 640 uM GlcN6P (glucosamine-6-phosphate [2]) [s⁻¹]	self-cleavage kobs at 2500 uM GlcN6P (glucosamine-6-phosphate [3]) [s⁻¹]	self-cleavage kobs at 10000 uM GlcN6P (glucosamine-6-phosphate [4]) [s⁻¹]
A39G U46G A53C	5.35e-05 ± 2.3e-05	0.000315 ± 0.00012	–	–
G32C C34A C61U C67U	< 1e-05	–	–	–
A6U U45A A53C	< 1e-05	4.01e-05 ± 1.9e-05	4.74e-05 ± 2.2e-05	–
U46G U49A	< 1e-05	< 1e-05	< 1e-05	< 1e-05
C8U G32C U47A	< 1e-05	< 1e-05	< 1e-05	–
C11A A42C	< 1e-05	< 1e-05	< 1e-05	–
G37C A39G G44A	< 1e-05	< 1e-05	–	–
U31C G62U G66C	< 1e-05	–	–	–
G7U C34G	< 1e-05	< 1e-05	–	–
U2C G9U C58U	< 1e-05	–	–	< 1e-05
G29U A39G G59U C67U	< 1e-05	< 1e-05	–	–
C16A C34G U49A C50A	< 1e-05	–	–	–
C16U G37A G40C G43A	< 1e-05	< 1e-05	< 1e-05	< 1e-05
A12C U31G A42C U69G	0.000164 ± 3.1e-05	–	0.00194 ± 0.00028	–
C8U A42U A64C U69C	< 1e-05	< 1e-05	–	–
A15C G40A U45A C70G	< 1e-05	< 1e-05	–	–
G62C U65G	< 1e-05	< 1e-05	–	–
A14U C34A G60A C61A	< 1e-05	–	–	< 1e-05
G59U C67U C68U U69C	4.87e-05 ± 2.4e-05	–	–	–
C16U C34G	< 1e-05	–	–	< 1e-05
G35U A42C U55C	< 1e-05	< 1e-05	–	–
G7U C11U G29U U30A	< 1e-05	< 1e-05	–	–

Variant	self-cleavage kobs at 160 uM GlcN6P (glucosamine-6-phosphate [1]) [s⁻¹]	self-cleavage kobs at 640 uM GlcN6P (glucosamine-6-phosphate [2]) [s⁻¹]	self-cleavage kobs at 2500 uM GlcN6P (glucosamine-6-phosphate [3]) [s⁻¹]	self-cleavage kobs at 10000 uM GlcN6P (glucosamine-6-phosphate [4]) [s⁻¹]
C8U A15U U31G	< 1e-05	< 1e-05	–	–
C8A A33C G35U G63U	< 1e-05	< 1e-05	< 1e-05	–
A36U A64G C68G	7.51e-05 ± 3e-05	–	–	–
A15G C16A G60U	< 1e-05	< 1e-05	< 1e-05	–
A33U C68A C70G	< 1e-05	–	< 1e-05	–
C10A U31C U57A A64U	< 1e-05	–	–	–
G32A A53C C71U	3.67e-05 ± 1.6e-05	7.17e-05 ± 2.3e-05	0.000197 ± 4.7e-05	–
G13A G41U G43C	< 1e-05	< 1e-05	–	–
G41U G63C	< 1e-05	–	< 1e-05	< 1e-05
U31A G62C C71U	< 1e-05	< 1e-05	–	–
C34U C67U	< 1e-05	–	< 1e-05	–
C11G A33U U49C C50U U65C	< 1e-05	–	–	–
A6G U46C U57G	< 1e-05	–	–	–
G35C A36U C58U	< 1e-05	–	< 1e-05	–
A12U G13U A48U G51C U54G C71U	< 1e-05	< 1e-05	< 1e-05	–
C58U C61G G66A C67A	5.89e-05 ± 2e-05	0.000108 ± 3.7e-05	–	–
C10G G44U C50U C61U	< 1e-05	< 1e-05	–	–
C8G A52G	< 1e-05	< 1e-05	< 1e-05	< 1e-05
G29C U56G G66C	< 1e-05	< 1e-05	–	–
A12C C50A A53G G63U	< 1e-05	–	–	–
C11U G40C G43A G60U U69G C70U	< 1e-05	–	< 1e-05	–
A14C U47A C58G C67G U69C	7.17e-05 ± 3.1e-05	9.78e-05 ± 3.1e-05	–	–

Variant	self-cleavage kobs at 160 uM GlcN6P (glucosamine-6-phosphate [1]) [s⁻¹]	self-cleavage kobs at 640 uM GlcN6P (glucosamine-6-phosphate [2]) [s⁻¹]	self-cleavage kobs at 2500 uM GlcN6P (glucosamine-6-phosphate [3]) [s⁻¹]	self-cleavage kobs at 10000 uM GlcN6P (glucosamine-6-phosphate [4]) [s⁻¹]
C8G U57C G62U	< 1e-05	< 1e-05	< 1e-05	< 1e-05
A36C G37A U46A G66U	< 1e-05	< 1e-05	< 1e-05	–
G7C G32U A36U G40U A42U A52G	< 1e-05	< 1e-05	< 1e-05	–
G13C G29U G37C C71U	< 1e-05	–	–	–
C8A G9A G37U A39G	< 1e-05	–	–	–
U31A A52C	< 1e-05	–	< 1e-05	–
G35C C67G	< 1e-05	< 1e-05	< 1e-05	–
C16U C50U U69G	7.48e-05 ± 1.8e-05	7.53e-05 ± 1.8e-05	7.21e-05 ± 1.6e-05	–
C10A U69G	3.29e-05 ± 1.6e-05	–	0.000329 ± 8.6e-05	3.29e-05 ± 1.6e-05
C10A A48C U56C	< 1e-05	< 1e-05	–	–
C10U A53C	< 1e-05	< 1e-05	–	–
G9U U31G A48G	< 1e-05	–	–	–
A14C G29A U56C U57G	< 1e-05	< 1e-05	–	–
G43A U65C	< 1e-05	< 1e-05	< 1e-05	–
C10U A12G U31A A36C C58A	< 1e-05	–	–	–
A36C U45C	< 1e-05	< 1e-05	< 1e-05	–
G40C U69A	< 1e-05	–	< 1e-05	–
C11A A15U C70G	4.95e-05 ± 1.9e-05	0.000432 ± 0.00013	–	–
A12G A14U A15U	4.38e-05 ± 2.1e-05	–	–	–
G37C U47C A52U	< 1e-05	–	–	–
G37A C50G C71A	0.000356 ± 0.00012	0.000114 ± 3.6e-05	6.17e-05 ± 2.4e-05	–
C11G A12C A52C G59U G66A C67G	< 1e-05	< 1e-05	< 1e-05	–

Variant	self-cleavage kobs at 160 uM GlcN6P (glucosamine-6-phosphate [1]) [s⁻¹]	self-cleavage kobs at 640 uM GlcN6P (glucosamine-6-phosphate [2]) [s⁻¹]	self-cleavage kobs at 2500 uM GlcN6P (glucosamine-6-phosphate [3]) [s⁻¹]	self-cleavage kobs at 10000 uM GlcN6P (glucosamine-6-phosphate [4]) [s⁻¹]
G7U C10G A33U C34U C67G C68A	6.38e-05 ± 2.3e-05	3.4e-05 ± 1.7e-05	–	–
C58U G63A	< 1e-05	–	–	< 1e-05
G29C C34G U55C	< 1e-05	–	–	–
A36U G63C C67U	< 1e-05	< 1e-05	< 1e-05	–
A36G G41C A53U	< 1e-05	< 1e-05	–	–
G9A A12U U31A A52G G59C	< 1e-05	–	< 1e-05	–
A6G C50U U55C	< 1e-05	< 1e-05	< 1e-05	< 1e-05
C34G U56A G62A C67U	< 1e-05	–	–	–
C10U G13U A42U U46G U57A	< 1e-05	< 1e-05	< 1e-05	–
G29U U30G A39U	8.86e-05 ± 2.1e-05	–	0.0013 ± 0.00029	–
G29U G32A G37U G66A	< 1e-05	< 1e-05	< 1e-05	–
C34U G35C	< 1e-05	–	< 1e-05	< 1e-05
A6U G44U C61U	< 1e-05	< 1e-05	< 1e-05	–
A12U A15C A42G	0.00123 ± 0.0005	0.00381 ± 0.0017	0.0282 ± 0.014	–
A36U A48G	< 1e-05	< 1e-05	–	< 1e-05
G38A C61U C70G	< 1e-05	–	–	–
C50G A53G C61U	0.000208 ± 7.8e-05	0.000248 ± 8.1e-05	0.000398 ± 9.7e-05	9.79e-05 ± 2.5e-05
C8U G32A U45A U56C	< 1e-05	< 1e-05	< 1e-05	< 1e-05
C16U G40A U46C	0.000137 ± 3.1e-05	–	0.000815 ± 0.00018	–
U49C G62A	< 1e-05	< 1e-05	–	< 1e-05
C34U U56C G66C	< 1e-05	–	< 1e-05	–
A33G C34A U55A C70A	0.00034 ± 0.00013	9.12e-05 ± 3.4e-05	–	–

Variant	self-cleavage kobs at 160 uM GlcN6P (glucosamine-6-phosphate [1]) [s⁻¹]	self-cleavage kobs at 640 uM GlcN6P (glucosamine-6-phosphate [2]) [s⁻¹]	self-cleavage kobs at 2500 uM GlcN6P (glucosamine-6-phosphate [3]) [s⁻¹]	self-cleavage kobs at 10000 uM GlcN6P (glucosamine-6-phosphate [4]) [s⁻¹]
G60C G63A	< 1e-05	< 1e-05	< 1e-05	< 1e-05
G13C A14U G32A	0.000741 ± 0.00017	–	0.00667 ± 0.0017	–
G51C G59A	< 1e-05	< 1e-05	< 1e-05	–
G38A G44U C58A	< 1e-05	< 1e-05	< 1e-05	–
G37A C50A C61G	< 1e-05	< 1e-05	–	–
G7A G9U C50U	< 1e-05	–	< 1e-05	–
G32A G51C	< 1e-05	< 1e-05	< 1e-05	–
C10G U46A U55C	< 1e-05	–	< 1e-05	–
A12C G51C U57C A64C	< 1e-05	< 1e-05	< 1e-05	–
A33U U65G	< 1e-05	< 1e-05	–	–
A6C A15U C16U	< 1e-05	–	–	–
G41U U45C G59U	< 1e-05	< 1e-05	< 1e-05	–
A53U U54G U55A U56A	0.000355 ± 7.8e-05	–	–	–
C8U A15G G29A	< 1e-05	< 1e-05	< 1e-05	–
A33G A53C G59A	< 1e-05	–	< 1e-05	< 1e-05
U57C G62A	< 1e-05	–	–	< 1e-05
G9A A36U C68U	< 1e-05	< 1e-05	–	–
G9U A33U A53G G66U	< 1e-05	–	–	–
G9C U45A U47C C68G	< 1e-05	< 1e-05	< 1e-05	–

From the supplement of paper PMC7125110
